B1: BEX1 (parent)
chain: HSLRAVSTDPPHHDHHDEFCLMP

What was measured:
[1] = variants of: B1; assay: protein stability index of a GFP-peptide fusion (GPS, HEK-293T) (PSI 1-6); higher = more stable; settings: c terminus: native
[2] = variants of: B1; assay: as above; settings: c terminus: native; remark: listed apart in the source

| Variant | protein stability index [1] | protein stability index [2] |
| --- | --- | --- |
| HSLYAVSTDPPHHDHHDEFCLMP | 2.16 | – |
| HSLDAVSTDPPHHDHHDEFCLMP | 2.54 | – |
| HSLHAVSTDPPHHDHHDEFCLMP | 2.76 | – |
| HSLNAVSTDPPHHDHHDEFCLMP | 2.64 | – |
| HSLPAVSTDPPHHDHHDEFCLMP | 2.6 | – |
| HSLSAVSTDPPHHDHHDEFCLMP | 2 | – |
| HSLRAVSTDPPHHDHHDVFCLMP | 2.14 | 2.58 |
| HSLRAVSTDPPHHDHHDRFCLMP | – | 2.35 |
| HSLRAVSTDPPHHDHHDSFCLMP | 2.32 | 2.19 |
| HSLRAVSTDPPHHDHHDWFCLMP | – | 2.61 |
| HSLRAVSTDPPHHDHHDQFCLMP | 1.93 | 2.7 |
| HSLRAVSTDPPHHDHHDLFCLMP | 2.29 | 2.55 |
| HSLRAVSTDPPHHDHHDTFCLMP | 2.2 | 2.72 |
| HSLRAVSTDPPHHDHHDMFCLMP | 2.24 | 2.15 |
| HSLRAVSTDPPHHDHHDNFCLMP | 2.84 | 2.44 |
| HSLRAVSTDPPHHDHHDYFCLMP | 2.08 | 2.22 |
| HSLRAVSTDPPHHDHHDEFCLEP | 2.4 | 3.21 |
| HSLRAVSTDPPHHDHHDEFCLVP | 2.75 | 2.95 |
| HSLRAVSTDPPHHDHHDEFCLWP | 2.48 | 2.78 |
| HSLRAVSTDPPHHDHHDEFCLQP | 2.83 | 2.9 |
| HSLRAVSTDPPHHDHHDEFCLKP | 3.36 | 4 |
| HSLRAVSTDPPHHDHHDEFCLRP | 2.74 | 3.24 |
| HSLRAQSTDPPHHDHHDEFCLMP | 2.21 | – |
| HSLRAWSTDPPHHDHHDEFCLMP | 3.53 | – |

| Variant | protein stability index [1] | protein stability index [2] |
| --- | --- | --- |
| HSLRAHSTDPPHHDHHDEFCLMP | 1.83 | – |
| HSLRATSTDPPHHDHHDEFCLMP | 1.79 | – |
| HSLRAESTDPPHHDHHDEFCLMP | 2.26 | – |
| HSLRYVSTDPPHHDHHDEFCLMP | 2 | – |
| HSLRPVSTDPPHHDHHDEFCLMP | 2.3 | – |
| HSLRRVSTDPPHHDHHDEFCLMP | 1.68 | – |
| HSLRAVATDPPHHDHHDEFCLMP | 1.29 | – |
| HSLRAVETDPPHHDHHDEFCLMP | 2.32 | – |
| HSLRAVPTDPPHHDHHDEFCLMP | 2.54 | – |
| HSLRAVKTDPPHHDHHDEFCLMP | 2.62 | – |
| HSLRAVSTDPPTHDHHDEFCLMP | 3.57 | – |
| HSLRAVSTDPPHHDHPDEFCLMP | 2.78 | – |
| HSLRAVSTDPPHPDHHDEFCLMP | 2.23 | – |
| HSPRAVSTDPPHHDHHDEFCLMP | 2.19 | – |
| HSFRAVSTDPPHHDHHDEFCLMP | 2.27 | – |
| HSLRAVSPDPPHHDHHDEFCLMP | 2.14 | – |
| VSLRAVSTDPPHHDHHDEFCLMP | 1.77 | – |
| HSLRAVSTDPPHHDHHDEVCLMP | 2.17 | 2.41 |
| HSLRAVSTDPPHHDHHDEMCLMP | 2.6 | 2.46 |
| HSLRAVSTDPPHHDHHDEICLMP | 2.89 | 2.2 |
| HSLRAVSTDPPHHDHHDEKCLMP | 1.59 | 2.87 |
| HSLRAVSTDPPHHDHHDETCLMP | 1.95 | 2.67 |
| HSLRAVSTDPPHHDHHDELCLMP | 1.97 | 2.31 |
| HSLRAVSTDPPHHDHHDESCLMP | 3.38 | 2.47 |

| Variant | protein stability index [1] | protein stability index [2] |
| --- | --- | --- |
| HSLRAVSTDPPHHDHHDEQCLMP | 2.26 | 2.46 |
| HSLRAVSTDPPHHDHHDEECLMP | 2.82 | 2.57 |
| HSLRAVSTDPPHHDHHDEPCLMP | 2.79 | 2.33 |
| HSLRAVSTDPPHHDHHDERCLMP | 1.8 | 2.5 |
| HSLRAVSTDPPHHDHHDEWCLMP | 2.39 | 2.52 |
| HSLRAVSTDPPHHDHHDEACLMP | 3.6 | 2.57 |
| HSLRAVSTDPPHHDHHDENCLMP | 2.42 | 2.27 |
| HSLRAVSTDPPHHDHHDECCLMP | – | 2.12 |
| HSLRAVSTDPPHHDHHDEYCLMP | 2.33 | 2.54 |
| HSLRAVSTDPPHHDHHDEGCLMP | – | 2.25 |
| HSLRAVSTDPPHHDIHDEFCLMP | 2.19 | – |
| HGLRAVSTDPPHHDHHDEFCLMP | 2.21 | – |
| HPLRAVSTDPPHHDHHDEFCLMP | 1.93 | – |
| HSLRAVSTDPPHHDHHDEFCSMP | 2.31 | 3.23 |
| HSLRAVSTDPPHHDHHDEFCIMP | 1.68 | 2.56 |
| HSLRAVSTDPPHHDHHDEFCTMP | 2.47 | 3.14 |
| HSLRAVSTDPPHHDHHDEFCKMP | 2.07 | 3.1 |
| HSLRAVSTDPPHHDHHDEFCHMP | 1.22 | 2.92 |
| HSLRAVSTDPPHHDHHDEFCVMP | 2.53 | 2.66 |
| HSLRAVSTDPPHHDHHDEFCRMP | 1.99 | 2.33 |
| HSLRAVSTDPPHHDHHDEFCYMP | 2.2 | 2.39 |
| HSLRAVSTDPPHHDHHDEFCCMP | 2.63 | 2.9 |
| HSLRAVSTDPPHHDHHDEFCAMP | 1.67 | 2.83 |
| HSLRAVSTDPPHHDHHDEFCEMP | 2.51 | 3.53 |

| Variant | protein stability index [1] | protein stability index [2] |
| --- | --- | --- |
| HSLRAVSTDPPHHDHHDEFCQMP | 2.14 | 3.42 |
| HSLRAVSTDPPHHDHHDEFCWMP | 1.92 | 2.9 |
| HSLRAVSTDPPHHDHHDEFCFMP | 2.37 | 2.21 |
| HSLRAVSTDPPHHDHHDEFCNMP | 2.84 | 3.18 |
| HSLRAVSTDPPHHDHHDEFCMMP | 2.21 | 2.39 |
| HSLRAVSTDPPHHHHHDEFCLMP | 2.62 | – |
| HSLRAVSTDPPHHTHHDEFCLMP | 3.55 | – |
| HSLRAVSTDPPHHDHHDEFCLMR | 2.45 | 3.16 |
| HSLRAVSTDPPHHDHHDEFCLMG | 2.55 | 3.75 |
| HSLRAVSTDPPHHDHHDEFCLMA | 2.23 | 3.09 |
| HSLRAVSTDPPHHDHHDEFCLMN | 3.49 | 4.23 |
| HSLRAVSTDPPHHDHHDEFCLMC | 2.32 | 3.58 |
| HSLRAVSTDPPHHDHHDEFCLMH | 3.59 | 3.81 |
| HSLRAVSTDPPHHDHHDEFCLMT | 1.75 | 3.02 |
| HSLRAVSTDPPHHDHHDEFCLMV | 2.19 | 3.07 |
| HSLRAVSTDPPHHDHHDEFCLMW | 2.19 | 2.97 |
| HSLRAVSTDPPHHDHHDEFCLMD | 4.48 | 4.52 |
| HSLRAVSTDPPHHDHHDEFCLMS | 2.77 | 3.56 |
| HSLRAVSTDPPHHDHHDEFCLMI | – | 2.44 |
| HSLRAVSTDPPHHDHHDEFCLMM | 2.12 | 3.17 |
| HSLRAVSTDPPHHDHHDEFCLME | 3.77 | 4.61 |
| HSLRAVSTDPPHHDHHDEFCLMF | 2.41 | 3.35 |
| HSLRAVSTDPPHHDHHDEFCLML | 2.66 | 3.24 |
| HSLRAVSTHPPHHDHHDEFCLMP | 1.85 | – |

| Variant | protein stability index [1] | protein stability index [2] |
| --- | --- | --- |
| HSLRAVSTTPPHHDHHDEFCLMP | 4.07 | – |
| HSLRAVSTIPPHHDHHDEFCLMP | 2.76 | – |
| HSLRAVSTQPPHHDHHDEFCLMP | 3.63 | – |
| HSLRAVSTDPHHHDHHDEFCLMP | 2.62 | – |
| HSLRAVSTDPPHHDHHDEFSLMP | 2.35 | 2.48 |
| HSLRAVSTDPPHHDHHDEFKLMP | 4.4 | 4.78 |
| HSLRAVSTDPPHHDHHDEFILMP | 3.11 | 4.33 |
| HSLRAVSTDPPHHDHHDEFELMP | 2.34 | 2.5 |
| HSLRAVSTDPPHHDHHDEFHLMP | 2.41 | 3.74 |
| HSLRAVSTDPPHHDHHDEFRLMP | 3.55 | 4.76 |
| HSLRAVSTDPPHHDHHDEFLLMP | 3.49 | 4.58 |
| HSLRAVSTDPPHHDHHDEFALMP | 2.05 | 2.8 |
| HSLRAVSTDPPHHDHHDEFWLMP | 3.13 | 3.48 |
| HSLRAVSTDPPHHDHHDEFDLMP | 2.69 | 3.8 |
| HSLRAVSTDPPHHDHHDEFVLMP | 3.09 | 4.51 |
| HSLRAVSTDPPHHDHHDEFQLMP | 1.89 | 2.59 |
| HSLRAVSTDPPHHDHHDEFNLMP | 2.21 | 3.24 |
| HSLRAVSTDPPHHDHHDEFTLMP | 2.3 | 3.61 |
| HSLRAVSTDPPHHDHHDEFGLMP | 3.08 | 2.09 |
| HSLRAVSTDPPHHDHHDEFMLMP | 2.16 | 3.14 |
| HSLRAVSTDPPHHDHHDEFFLMP | 3.54 | 4.5 |

— the supplement of paper PMC10567573
